Assay results: article PMC12048566

Target: T1, GST-OsARF24 (Oryza sativa (rice), UniProt Q2QQX6 1-841)
T1 sequence: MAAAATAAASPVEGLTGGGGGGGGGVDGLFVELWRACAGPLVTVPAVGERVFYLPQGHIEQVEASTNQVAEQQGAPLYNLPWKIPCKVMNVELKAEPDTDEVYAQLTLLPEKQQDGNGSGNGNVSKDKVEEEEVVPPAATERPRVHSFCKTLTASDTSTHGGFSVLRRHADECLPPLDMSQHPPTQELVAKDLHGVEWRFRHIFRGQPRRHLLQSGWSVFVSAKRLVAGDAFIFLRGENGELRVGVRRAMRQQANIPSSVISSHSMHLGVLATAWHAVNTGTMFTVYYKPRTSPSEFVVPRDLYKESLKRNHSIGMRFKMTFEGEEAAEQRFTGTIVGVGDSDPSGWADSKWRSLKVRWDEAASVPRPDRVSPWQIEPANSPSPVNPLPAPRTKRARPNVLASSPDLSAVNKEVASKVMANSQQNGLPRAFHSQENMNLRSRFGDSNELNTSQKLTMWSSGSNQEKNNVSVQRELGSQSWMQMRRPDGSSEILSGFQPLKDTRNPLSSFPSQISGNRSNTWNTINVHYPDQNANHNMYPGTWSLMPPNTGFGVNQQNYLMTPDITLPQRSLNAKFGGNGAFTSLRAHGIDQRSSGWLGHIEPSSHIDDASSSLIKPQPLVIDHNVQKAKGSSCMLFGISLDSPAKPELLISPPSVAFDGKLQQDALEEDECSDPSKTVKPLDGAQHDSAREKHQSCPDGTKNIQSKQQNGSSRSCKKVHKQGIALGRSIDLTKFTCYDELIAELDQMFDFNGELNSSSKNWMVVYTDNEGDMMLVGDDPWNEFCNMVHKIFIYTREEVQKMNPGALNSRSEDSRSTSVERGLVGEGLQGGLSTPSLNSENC
Test: EMSA

B1: ARF probe (OsMAP1/OsMPK3 promoter) (dsDNA)
DNA 1: TCATCGCCTTGCTGTCTCTGCGAATCGAGA
DNA 2: TCTCGATTCGCAGAGACAGCAAGGCGATGA
B1: binds.
